This note sets out measurements from the supplement of paper PMC12764529.

± gives the half width of the 95% confidence interval.

Data set [1] in a line: folding stability dG unfold from trypsin proteolysis; higher = more stable. The essentials: (§1)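 Designed mini-proteins (under 80 residues, no cysteine) in a PA-tagged cDNA display construct were digested with trypsin and chymotrypsin. Each protease was used at 11 concentrations (threefold dilutions) plus a no-protease condition, followed by sequencing. K50 was inferred by Bayesian fitting of sequencing counts, and unfolding free energy was derived against a sequence-predicted unfolded-state K50 and a shared folded-state K50, per protease or combined. Only designs with AlphaFold2 dimer inter-PAE above 15 were kept.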

Data set [2] in a line: folding stability dG unfold from chymotrypsin proteolysis; higher = more stable. The method in brief:
as §1

The nature of data set [3]: folding stability dG unfold (combined trypsin and chymotrypsin); higher = more stable. The method in brief:
as §1

On to “SAGGSAGGSAGPIDPNSTRPVPADYVVIRIRGDEKPRYFVVHPEYAKEFAERHGAELYYESAGGSAGGSAGG [r17_109_TrMRF]”, for which the “folding stability dG unfold” value in data set [1] was determined as 0.0932 ± 0.586 kJ/mol; in data set [2], 2.43 ± 0.343 kJ/mol; in data set [3] it was 1.84 ± 0.318 kJ/mol.
Regarding “SAGGSAGGSAGPIIPPNFEVVDVFETETSYYILVKNPETGRYYVARYDPLTGKIEVFEVSSAGGSAGGSAGG [r11_896_TrMRF]”, the results for the “folding stability dG unfold” value in data set [1], in data set [2] and in data set [3] were 14.5 ± 0.418 kJ/mol, 19.9 ± 0.272 kJ/mol and 18.9 ± 0.418 kJ/mol, respectively.
For the sequence “SAGGSAGGSAGPKIPKNYKIVATYTVPPTNKKKLILYDPKTNKPLIFDTVSGKIYPFGKKSAGGSAGGSAGG [r11_268_TrMRF]”, the entries for the “folding stability dG unfold” value in data set [1], in data set [2] and in data set [3] were 6.66 ± 0.113 kJ/mol, 8.38 ± 0.46 kJ/mol and 7.71 ± 0.406 kJ/mol, respectively.
In the case of “SAGGSAGGSAGPLRPRLYRVRFTNPDGSRREFLVPEGATLEEILKRFNIPESGRVELEPVSAGGSAGGSAGG [r11_340_TrMRF]”, the “folding stability dG unfold” value in data set [1] worked out at 9.64 ± 0.138 kJ/mol; in data set [2] it was 8.53 ± 0.293 kJ/mol; in data set [3], 9.46 ± 0.343 kJ/mol.
For “SAGGSAGGSAGPNAVYLGELEVTTRNPDGDRPLRVRVELYLVPTPEGLRLLARVLEVEELSAGGSAGGSAGG [r11_113_TrMRF]” the same measures were 11.8 ± 0.218 kJ/mol, 15.25 ± 0.0879 kJ/mol and 14.2 ± 0.167 kJ/mol.
For “SAGGSAGGSAGPPNQRHEYEIKLTIYDPDNGKKFTIKIPMESPWDMPNFMRKLADNGYIKSAGGSAGGSAGG [r11_668_TrROS]” the same measures were 2.33 ± 0.586 kJ/mol, 5.78 ± 0.46 kJ/mol and 4.69 ± 0.46 kJ/mol.
“SAGGSAGGSAGPRIVAFNVPNGKTIPLFAPDGWMIRINIERDPKDGEHKMETEYVPADDISAGGSAGGSAGG [r17_287_TrROS]”: the “folding stability dG unfold” value in data set [1] is -1.77 ± 1.55 kJ/mol; in data set [2], -1.15 ± 1.84 kJ/mol; in data set [3], -1.75 ± 1.21 kJ/mol.
Taken in the same sequence, the figures for “SAGGSAGGSAGPRYRLRIELRLERNEDGSLSLSAKIEIERIEPPPPPPRVVLYNGKLYLLSAGGSAGGSAGG [r17_418_TrROS_Hall]” were 16.4 ± 1.72 kJ/mol, 18.2 ± 0.879 kJ/mol and 17.9 ± 1.42 kJ/mol.
“SAGGSAGGSAGPSDDVKPYEVEAEFLIPGTGERVRVRAEVYTLDEEKGLALVRVEVEPVLSAGGSAGGSAGG [r11_1029_TrMRF]”: the “folding stability dG unfold” value in data set [1] worked out at 6.45 ± 0.293 kJ/mol; in data set [2] it was 12 ± 0.226 kJ/mol; in data set [3], 10.1 ± 0.753 kJ/mol.
On to “SAGGSAGGSAGPSYIAVVEFENGERPVYLFPPNTGKLEDIVEELKKKFPSLKKITIYPAPSAGGSAGGSAGG [r11_311_TrMRF]”, for which the “folding stability dG unfold” value came out at 15 ± 0.711 kJ/mol in data set [1], 12.6 ± 0.669 kJ/mol in data set [2] and 13.9 ± 0.364 kJ/mol in data set [3].
Taken in the same sequence, the figures for “SAGGSAGGSAGPVPKTITVTVSSPEEAEAAVKEIKPKYPNVKVERKKVGDKIVLTITVEESAGGSAGGSAGG [r17_319_JUSTAS]” were 7.77 ± 0.46 kJ/mol, 7.85 ± 0.389 kJ/mol and 7.33 ± 0.669 kJ/mol.
Taken in the same sequence, the figures for “SAGGSAGGSAGRAEIPITFNGKKVEVEVEPDPDNGHPIITIKFGNKPVVINPDGQIRPFPSAGGSAGGSAGG [r11_732_TrROS]” were -0.212 ± 0.46 kJ/mol, -0.388 ± 1.97 kJ/mol and 0.127 ± 0.795 kJ/mol.
For “SAGGSAGGSAGRRIVFQFPLGMPIDEIADELADNGYEVEINWEPDPNGWMTFVIEITPPDSAGGSAGGSAGG [r11_1050_TrROS]”, the “folding stability dG unfold” value in data set [1] is 6.08 ± 0.0669 kJ/mol; in data set [2] it was 9.65 ± 0.406 kJ/mol; in data set [3], 8.26 ± 0.46 kJ/mol.
Taken in the same sequence, the figures for “SAGGSAGGSAGRRVTINHNPENGFFRVKVYPPKGKSQVYPIPMENLEEIKKNLPPGVEIVSAGGSAGGSAGG [r11_569_TrROS]” were 0.863 ± 0.502 kJ/mol, -2.14 ± 1 kJ/mol and -0.427 ± 0.502 kJ/mol.
For “SAGGSAGGSAGSFVKGGTVYEIYKNPNTKKYTIVATPKNGKKYVFTFDSPEEAEKALKASSAGGSAGGSAGG [r11_238_TrMRF]” the same measures were 6.92 ± 0.151 kJ/mol, 11.1 ± 0.192 kJ/mol and 9.95 ± 0.272 kJ/mol.
For “SAGGSAGGSAGSIKEALKKLKPGDTVEIEITLKDGSKIKIRVKVIRDKKTKKYKVKIEIESAGGSAGGSAGG [r11_343_TrROS_Hall]” the same measures were 17.4 ± 1.97 kJ/mol, 16.1 ± 0.322 kJ/mol and 16.7 ± 1.3 kJ/mol.
For “SAGGSAGGSAGSKDTMYLLKVKDLGENELKETYIEVPAEKVQEVIDALSSDPNLEIEVIPSAGGSAGGSAGG [r17_50_TrMRF]”, the “folding stability dG unfold” value in data set [1] worked out at 4.43 ± 0.172 kJ/mol; in data set [2] it was 4.57 ± 0.226 kJ/mol; in data set [3], 4.65 ± 0.268 kJ/mol.
For “SAGGSAGGSAGSKKKRVITIWIPPNQSIEEAKNFMDEGFPIKEIDVQTRPDGHMMVTITLSAGGSAGGSAGG [r11_97_TrROS]” the same measures were 6.53 ± 0.255 kJ/mol, 4.41 ± 0.586 kJ/mol and 5.05 ± 0.586 kJ/mol.
